# Laboratory results taken from patent US8835609B2, “Antigen binding sites to non-functional oligomeric P2X7 receptors and methods of use thereof” (Biosceptre International Limited, priority 2009, dated 2014).
# T1: non-functional receptors on live COLO-205 cells (Homo sapiens, UniProt Q99572)
# T1 construct: endogenous in cells; host or cells: COLO-205 (human colorectal tumour cells)
# T1 sequence (Q99572 1-595): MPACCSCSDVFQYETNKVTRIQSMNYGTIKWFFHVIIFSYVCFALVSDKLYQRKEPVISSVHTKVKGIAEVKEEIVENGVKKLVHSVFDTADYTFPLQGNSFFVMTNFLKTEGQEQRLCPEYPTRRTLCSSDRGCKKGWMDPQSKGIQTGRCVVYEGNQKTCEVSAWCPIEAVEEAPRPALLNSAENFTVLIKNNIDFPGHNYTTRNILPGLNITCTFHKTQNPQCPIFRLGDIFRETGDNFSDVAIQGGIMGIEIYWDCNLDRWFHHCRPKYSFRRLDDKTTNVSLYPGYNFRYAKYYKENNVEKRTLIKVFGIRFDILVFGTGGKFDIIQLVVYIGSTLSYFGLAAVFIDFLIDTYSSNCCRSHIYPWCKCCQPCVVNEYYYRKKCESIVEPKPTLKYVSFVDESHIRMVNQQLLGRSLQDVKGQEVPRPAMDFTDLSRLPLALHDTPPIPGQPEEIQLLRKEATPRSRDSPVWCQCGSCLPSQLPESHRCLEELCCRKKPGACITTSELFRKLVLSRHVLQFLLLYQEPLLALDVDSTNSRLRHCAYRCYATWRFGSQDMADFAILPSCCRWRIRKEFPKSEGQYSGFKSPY
# T2: E200-300 epitope of P2X7 receptor (Homo sapiens, UniProt Q99572, INS205RNILPGGA)
# T2 construct: added C-terminal Cys (attachment point for BSA, DT, ovalbumin or KLH via MCS); purchased Chiron Mimotopes; host or cells: solid phase peptide synthesis
# T2 sequence (Q99572 with tags, fused parts or gaps isoform Q99572-5 INS205RNILPGGA): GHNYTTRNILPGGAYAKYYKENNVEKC
# T3: non-functional receptors on live PC3 cells (Homo sapiens, UniProt Q99572)
# T3 construct: endogenous in cells; host or cells: PC3 (human prostate tumour cells)
# T3 sequence (Q99572 1-595): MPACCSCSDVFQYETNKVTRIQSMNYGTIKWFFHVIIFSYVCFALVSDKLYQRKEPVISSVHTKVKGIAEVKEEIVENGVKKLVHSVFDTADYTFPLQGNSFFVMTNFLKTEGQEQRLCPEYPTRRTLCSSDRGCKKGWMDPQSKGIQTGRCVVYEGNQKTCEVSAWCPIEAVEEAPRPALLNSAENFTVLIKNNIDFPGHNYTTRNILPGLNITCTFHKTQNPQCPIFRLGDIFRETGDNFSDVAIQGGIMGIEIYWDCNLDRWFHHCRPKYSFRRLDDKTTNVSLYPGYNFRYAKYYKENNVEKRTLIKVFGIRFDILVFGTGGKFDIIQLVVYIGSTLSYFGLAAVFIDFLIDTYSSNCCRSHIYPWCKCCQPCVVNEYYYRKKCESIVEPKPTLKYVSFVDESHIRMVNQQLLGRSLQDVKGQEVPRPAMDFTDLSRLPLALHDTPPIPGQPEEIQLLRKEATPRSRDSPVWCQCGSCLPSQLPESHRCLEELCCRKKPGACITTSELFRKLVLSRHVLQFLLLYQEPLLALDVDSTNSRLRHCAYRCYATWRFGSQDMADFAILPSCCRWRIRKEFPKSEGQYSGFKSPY
# Key:
# Colo205 cells = assay: ApoOne apoptosis assay, caspase 3/7 activity; type: cell-based, human; details: for Caspase 3/7 activation: COLO205, 3 day time course, antibodies up to 40 ug/mL
# Method: FIG. 11. Mechanism of Cell Death Induced by 2F6 with Caspase 3/7 Activation Associated with Reactivation of Apoptosis. […] In contrast, the absence of drug or antibody has no effect (cells only column).
# A mode of action by which the 2F6 is able to inhibit cell growth was determined by an ApoOne apoptosis assay in which caspase 3/7 activity was measured in combination with cell growth through the Cell Titer Blue assay. Colo205 cells were grown in a 3-day growth assay with increasing 2F6 from 0-40 ug/mL. The gemcitabine positive control was added to establish the degree of apoptosis that may be elicited by the presence of bound antibody.
# Lewis Lung (LL) tumour = assay: Lewis Lung (LL) syngeneic xenograft model, lung metastases; type: in vivo, mouse; details: 5 mL/kg daily; Day 11
# Method: Dosing occurred every 3 days at antibody concentrations of 1 or 10 mg/kg i.v. or with PBS for treatment control or Sorafenib at 5 mL/kg daily as a positive control in the Lewis Lung model. Mice were randomised into equal groups of 10 mice, based on tumour volume on Day 0 of the studies.
# Mice were anaesthetised for blood collection and euthanised by exsanguination via terminal cardiac bleed 48 hours post-final dose, on Days 11 or 14 post-initial treatment.
# The lungs were excised from all mice. Lung surface metastases were counted and were categorised according to size: small (<1 mm), medium (≧1 mm and <3 mm) and large (≧3 mm). Excised lungs were preserved in 10% neutral buffered formalin.
# The syngeneic Lewis Lung model was used with additional control groups. Besides the PBS control group of ten mice (Group 1), a positive control group using daily Sorafenib at 5 mL/kg was included (Group 5) along with antibody treatment groups consisting of sheep affinity purified E200-300 polyclonal antibody at 10 mg/kg (Group 2), 2F6-hIgG1 at 1 mg/kg (Group 3) and 2F6-hIgG1 at 10 mg/kg (Group 4).
# [1] = target: T1, non-functional receptors on live COLO-205 cells; assay: Flow cytometry binding to live COLO205 cells; type: cell-based; details: FLAG-tagged Fabs; anti-FLAG secondary
# Description: (§1) FIGS. 19(a)-(b). (a) Flow cytometry results for binding recombinant Fabs to live colorectal COLO205 tumour cells. A Sigma anti-FLAG secondary antibody (#F4049) was used to detect the binding of the primary antibodies. WT 2F6 Fab bound weakly over the same concentration range. The EC50 for the four lead Fabs is very similar to the values obtained from ELISA measurements. (b) Very similar improved binding results were obtained for prostate PC3 cells.
# (§2) Flow cytometry was used to measure the enhanced binding of selected affinity matured recombinant Fabs in human COLO-205 and PC3 cell lines over that of the starting 2F6 sequence. Recombinant FLAG-tagged Fabs were bound to cells and detected using a Sigma F4049 murine monoclonal anti-FLAG antibody conjugated to FITC used at a concentration of 1:75. Affinity purified sheep 200-300 antibody was examined for direct comparison with the 2F6 mIgG2a WT by Flow to PC3 cells.
# [2] = target: T2, E200-300 epitope of P2X7 receptor; assay: ELISA against immobilised antigen E200-300; type: binding
# Method: FIG. 18. ELISA of IgM, IgG2a and Fab Leads. Lead Affinity Matured 2F6-Derived Fab ELISA (scale 0.01-12.5 ug/mL for IgM and IgG2a; 0.1-100 ug/mL for Fabs).
# The 2F6 VH and VL gene fragments were amplified and assembled into an E. coli expression/secretion vector. Both the 2F6 scFv and Fab were transformed into E. coli and expression of the gene construct induced. The E. coli cultures were harvested 5 hours post induction and the scFv and Fab analysed for binding using ELISA and Biacore against immobilised antigen E200-300.
# Mutagenesis of the 2F6 scFv was introduced through a combination of error prone PCR, NNK randomisation and sequence length variation of HCDR3. A mutated library in the phagemid vector was of order 1×10^7. Screening of the library for higher affinity mutants employed a combination of phage display with filter expression assays using biotinylated E200-300 antigen. A selection of higher affinity scFv lead phage clones underwent small scale expression of soluble antibody fragments with affinities measured using ELISA and Biacore.
# [3] = target: T3, non-functional receptors on live PC3 cells; assay: Flow cytometry binding to PC3 cells; type: cell-based
# Description: as §1
# FIG. 20. A comparison was made with various preparations of recombinant 2F6 IgG2a to determine the relative binding strength of the WT formatted antibody to PC3 cells compared with the affinity matured Fabs. Rockland IgG2a #010-001-332 was used for control to determine background (diamond).
# as §2
# [4] = system: prostate PC3, colon COLO205, breast MDAMB231, melanoma A375 and breast MCF7; assay: Cell Titer Blue assay of cell growth, range of cancer cell lines; type: cell-based; details: for cell growth: 3-day or 5-day growth, antibody 0-40 ug/mL
# Method: (§3) FIGS. 9(a)-(d). (a) In Vitro Cell Inhibition Assays. […] Growth over 5 days is inhibited to a greater extent than over 3 days. The growth data is plotted relative to the control growth curves obtained using the control IgM antibody.
# (§4) Cells were seeded at appropriate density and grown over a 3-day or 5-day period to reach a level close to confluence at the end of the test period in the presence of control antibodies and in the presence of test antibodies, either IgM or IgG2a types of 2F6 over the concentration range 0-40 ug/mL. Testing of cell line growth was conducted with seed densities ranging from 100-2000 cells/well.
# MCF-7 cells = assay: Direct cell killing, confocal microscope images; type: cell-based; details: 20 ug/mL; 24 hours exposure
# Method: FIG. 12. Direct Cell Killing by 2F6 IgM. Confocal microscope images of MCF-7 cells in presence of control IgM antibody (a) and 2F6 IgM (b) for 24 h.
# [5] = system: MCF-7 breast cancer cell line; assay: Cell Titer Blue cell growth inhibition with peptide blocking, MCF-7; type: cell-based; details: for growth inhibition after pre-incubation of antibody with soluble peptide epitope: 3 days
# Method: FIG. 10. Blocking Reaction in Cell Killing Assay. The Cell Titer Blue cell growth inhibition assay is used over three day cell growth with MCF-7 breast cancer cell line. Note the viable control cells in the right column have no antibody or peptide. The left hand column is the signal derived from the cells incubated with 10 ug/mL 2F6 IgM antibody containing 500 ug/mL peptide epitope (E200-300 epitope described as 200/300 in Figure), sufficient to block the cell growth inhibition evidenced by the data in the three central columns that show growth inhibition is not affected by the presence of 50 ug/mL, 5 ug/mL or 0 ug/mL peptide respectively.
# as §4
# COLO205 = assay: Cell Titer Blue cell growth assay, COLO205; type: cell-based, human
# Method: as §3, §4
molecule,measurement,setting,value
"Nc1ccn([C@@H]2O[C@H](CO)[C@@H](O)C2(F)F)c(=O)n1 [Gemcitibine, gemcitabine, reference compound]",Caspase 3/7 activation,Colo205 cells,activate caspases
"CNC(=O)c1cc(Oc2ccc(NC(=O)Nc3ccc(Cl)c(C(F)(F)F)c3)cc2)ccn1 [Sorafenib, reference compound]",Mean Lung Surface Mets,Lewis Lung (LL) tumour,0.1
same,inhibition of lung metastases relative to PBS control,Lewis Lung (LL) tumour,96%
"WT Fab: recombinant Fab of wildtype 2F6 expressed in E. coli (antibody, V domains shown) VH: DVKLVESGGGLVKLGGSLKLSCAASGFTFSSYYMSWVRQTPEKRLELVAAINSNGGSTYYPDTVKGRFTISRDNAKNTLYLQMSSLKSEDTAFYYCTRHYSSRFFDVWGAGTTVTVSS VL: MADIVMTQSQKFMSTSVGDRVSVTCKASQNVGTNVAWYQQKPGQSPKALIYSASFRYSGVPDRFTGSGSGTDFTLTISNVQSEDLAEFFCQQYNSYPFTFGSGTRLEIK",binding to live COLO205 cells,[1],bound weakly
same,binding compared with selected affinity matured leads,"[2]; ELISA, Fab format",much lower (2-logs) binding
same,EC50 (ELISA),"[2]; scale 0.01-12.5 ug/mL for IgM and IgG2a, 0.1-100 ug/mL for Fabs",very low EC50
"2F6 IgG2a: 2F6 VH and VL chains spliced into a mouse IgG2a sequence, expressed in HEK293 cells (antibody, V domains shown) VH: DVKLVESGGGLVKLGGSLKLSCAASGFTFSSYYMSWVRQTPEKRLELVAAINSNGGSTYYPDTVKGRFTISRDNAKNTLYLQMSSLKSEDTAFYYCTRHYSSRFFDVWGAGTTVTVSS VL: MADIVMTQSQKFMSTSVGDRVSVTCKASQNVGTNVAWYQQKPGQSPKALIYSASFRYSGVPDRFTGSGSGTDFTLTISNVQSEDLAEFFCQQYNSYPFTFGSGTRLEIK",binding to PC3 cells,[3],comparable to the binding elicited by the lead Fabs
same,cell growth,[4],inhibited cell growth
same,cell growth inhibition compared with the IgM form,[4]; over 3 days,weaker cell inhibition
"2F6 IgM: hybridoma clone 2F6, mouse IgM with Kappa light chains, raised to P2X7 E200-300; CDR3 HYSSRFFDV (antibody, V domains shown, IgM constant regions, hybridoma clone 2F6, mouse IgM with Kappa light chains, raised to P2X7 E200-300; CDR3 …) VH: DVKLVESGGGLVKLGGSLKLSCAASGFTFSSYYMSWVRQTPEKRLELVAAINSNGGSTYYPDTVKGRFTISRDNAKNTLYLQMSSLKSEDTAFYYCTRHYSSRFFDVWGAGTTVTVSS VL: MADIVMTQSQKFMSTSVGDRVSVTCKASQNVGTNVAWYQQKPGQSPKALIYSASFRYSGVPDRFTGSGSGTDFTLTISNVQSEDLAEFFCQQYNSYPFTFGSGTRLEIK",cell death (confocal images),MCF-7 cells,many cells are already dead
same,Caspase 3/7 activation,Colo205 cells,steady increase
same,antibody concentration sufficient to initiate full caspase 3/7 (apoptosis) activity,"Colo205 cells; Colo205, 3-day growth assay",20 to 40 µg/mL
same,growth inhibition after pre-incubation of antibody with soluble peptide epitope,"[5]; 10 ug/mL antibody, E200-300 peptide 500 ug/mL",no longer able to affect cell growth
same,growth inhibition after pre-incubation of antibody with soluble peptide epitope,"[5]; 10 ug/mL antibody, E200-300 peptide 5-50 ug/mL",no effect on the inhibition
same,MCF7 cell growth,"[5]; 10 ug/mL antibody, over 3 days",greatly inhibits cell growth
same,MCF-7 cell growth,[5]; after 5 days of exposure,Total inhibition of cell growth
same,COLO205 growth,"COLO205; over 3 days, relative to control IgM",significantly inhibited
same,COLO205 cells,"COLO205; over 5 days, even at low dose of 2.5 ug/mL",eliminated
same,cell growth,[4],inhibited cell growth
